Experimental data from PMC7860981, “Mitochondrial Enzymes of the Urea Cycle Cluster at the Inner Mitochondrial Membrane” (Frontiers in Physiology, 2020).

Molecular target: T1, carbamylphosphate synthetase 1 (CPS1), endogenous in mouse liver mitochondria (mouse (endogenous in mouse liver …, UniProt Q8C196 39-1500))
T1 construct: carbamylphosphate synthetase 1, mouse, endogenous in liver mitochondria; also called CPSI; source: endogenous, mouse liver mitochondria, lysate (PBS with 2% CHAPS)
T1 sequence (looked up): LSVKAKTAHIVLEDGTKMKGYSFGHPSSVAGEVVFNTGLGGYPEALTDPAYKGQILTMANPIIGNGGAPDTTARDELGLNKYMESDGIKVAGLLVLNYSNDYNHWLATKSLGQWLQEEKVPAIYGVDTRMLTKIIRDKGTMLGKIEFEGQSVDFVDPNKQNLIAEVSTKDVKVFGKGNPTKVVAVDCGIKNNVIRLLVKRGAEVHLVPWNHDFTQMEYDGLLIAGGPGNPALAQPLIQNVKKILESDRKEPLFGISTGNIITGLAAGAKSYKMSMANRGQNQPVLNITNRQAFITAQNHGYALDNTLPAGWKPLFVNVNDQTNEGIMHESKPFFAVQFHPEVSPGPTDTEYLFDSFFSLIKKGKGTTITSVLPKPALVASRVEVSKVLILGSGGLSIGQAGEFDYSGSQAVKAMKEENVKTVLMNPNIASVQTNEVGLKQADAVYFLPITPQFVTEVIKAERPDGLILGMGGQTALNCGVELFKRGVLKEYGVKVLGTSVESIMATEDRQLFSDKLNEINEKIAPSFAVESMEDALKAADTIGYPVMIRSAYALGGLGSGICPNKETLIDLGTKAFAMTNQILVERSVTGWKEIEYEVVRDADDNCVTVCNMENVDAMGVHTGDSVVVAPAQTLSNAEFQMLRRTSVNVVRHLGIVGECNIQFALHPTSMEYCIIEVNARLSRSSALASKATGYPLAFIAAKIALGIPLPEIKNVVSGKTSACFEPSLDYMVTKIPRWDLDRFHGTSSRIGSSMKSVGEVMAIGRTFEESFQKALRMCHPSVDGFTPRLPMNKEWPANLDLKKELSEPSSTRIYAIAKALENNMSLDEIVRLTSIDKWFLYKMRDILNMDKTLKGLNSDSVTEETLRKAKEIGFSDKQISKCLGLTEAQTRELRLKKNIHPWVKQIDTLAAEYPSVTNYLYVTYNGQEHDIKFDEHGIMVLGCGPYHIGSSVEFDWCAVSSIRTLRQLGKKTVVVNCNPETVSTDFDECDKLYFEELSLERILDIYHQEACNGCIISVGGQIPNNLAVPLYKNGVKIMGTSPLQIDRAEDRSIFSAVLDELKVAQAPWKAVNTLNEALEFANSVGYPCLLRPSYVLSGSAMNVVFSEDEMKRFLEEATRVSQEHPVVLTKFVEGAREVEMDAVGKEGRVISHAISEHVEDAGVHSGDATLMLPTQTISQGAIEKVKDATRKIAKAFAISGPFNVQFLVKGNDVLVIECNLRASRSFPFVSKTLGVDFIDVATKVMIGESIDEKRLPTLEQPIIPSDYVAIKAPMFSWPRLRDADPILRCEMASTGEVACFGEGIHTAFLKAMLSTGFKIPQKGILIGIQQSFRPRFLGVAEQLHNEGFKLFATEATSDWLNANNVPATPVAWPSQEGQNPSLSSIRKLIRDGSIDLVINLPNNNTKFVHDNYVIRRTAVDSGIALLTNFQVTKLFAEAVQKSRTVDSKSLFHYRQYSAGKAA
Assay: co-IP; competition experiment: purified recombinant mVS (10 to 30-fold molar excess over CPS1) mixed 1:1 (v/v) with mitochondrial lysate (2 mg/ml protein), added to magnetic beads cross-linked to anti-CPS1 antibodies; immunoblot for NAGS, densitometry of NAGS-M bands
Conditions: one partner purified

fold decrease of mNAGS co-immunoprecipitated with CPS1 in the presence of mVS: 5 fold
B1: recombinant mouse variable segment (mVS) of NAGS (domain or fragment, UniProt Q8R4H7 49-117, looked up)
chain: LSTARAHAEDAEGAKGRVQSPAVEEPSWTPLPTPLESPAPPAGRSLVQRDIQAFLNQCGASPGEARHWL
notes: Predicted molecular weight 9.675 kDa as printed
